Measured values: IntAct's records for PubMed 12912994

B1: Mitogen-activated protein kinase kinase kinase 2 (Mus musculus), Q61083 (parent)
chain: MDDQQALNSIMQDLAVLHKASRPALSLQETRKAKPSSPKKQNDVRVKFEHRGEKRILQVTRPVKLEDLRSKSKIAFGQSMDLHYTNNELVIPLTTQDDLDKAVELLDRSIHMKSLKILLVVNGSTQATNLEPSPSPEDLNNTPLGAERKKRLSVVGPPNRDRSSPPPGYIPDILHQIARNGSFTSINSEGEFIPESMDQMLDPLSLSSPENSGSGSCPSLDSPLDGESYPKSRMPRAQSYPDNHQEFTDYDNPIFEKFGKGGTYPRRYHVSYHHQEYNDGRKTFPRARRTQGTSFRSPVSFSPTDHSLSTSSGSSVFTPEYDDSRIRRRGSDIDNPTLTVTDISPPSRSPRAPTNWRLGKLLGQGAFGRVYLCYDVDTGRELAVKQVQFNPESPETSKEVNALECEIQLLKNLLHERIVQYYGCLRDPQEKTLSIFMELSPGGSIKDQLKAYGALTENVTRKYTRQILEGVHYLHSNMIVHRDIKGANILRDSTGNIKLGDFGASKRLQTICLSGTGMKSVTGTPYWMSPEVISGEGYGRKADIWSVACTVVEMLTEKPPWAEFEAMAAIFKIATQPTNPKLPPHVSDYTRDFLKRIFVEAKLRPSAEELLRHMFVHYH
partner: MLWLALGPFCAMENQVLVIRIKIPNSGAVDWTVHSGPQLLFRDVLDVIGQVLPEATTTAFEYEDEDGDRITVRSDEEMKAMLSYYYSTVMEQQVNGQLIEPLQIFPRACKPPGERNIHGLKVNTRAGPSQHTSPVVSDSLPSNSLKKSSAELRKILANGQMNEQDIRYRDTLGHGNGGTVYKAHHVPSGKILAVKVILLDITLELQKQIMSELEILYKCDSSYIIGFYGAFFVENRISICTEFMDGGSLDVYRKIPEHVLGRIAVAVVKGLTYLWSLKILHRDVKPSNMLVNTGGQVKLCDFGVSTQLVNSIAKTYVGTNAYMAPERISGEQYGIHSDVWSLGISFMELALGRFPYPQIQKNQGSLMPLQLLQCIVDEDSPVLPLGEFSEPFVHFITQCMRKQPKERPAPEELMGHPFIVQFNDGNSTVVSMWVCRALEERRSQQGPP

Variants of: B1
Settings: with mp2k5_mouse Map2k5, Q9WVS7

| Variant | effect of a mutation on the interaction |
| --- | --- |
| K47A | decreasing interaction |
